Test [1] concerns the target MBP tagged 53BP1 fragment (a.a. 1484-1603). Description: BLI, fold change Ka of Ubv/Ka of CM1.
Test [2] has the same target. In words: BLI, KA (M-1), log axis.

B1: CM149 (designed binder)
Ubv: MHHHHHHGGSGYLIFVRMLTGKMIELEVMPSDTIEVIKAKIQDHEGIPLDEQHLTFQGTLLDDGYTLGDYNLLIDPKKMPLLRMQ
B1: the binding result in test [1] is “binds”.

B2: CM149-DM (designed binder)
Ubv: MHHHHHHGGSGYLIFVRMLTGKMIELEVMPSDTIEVIKAKIQDHEGIPLDEQHLTFQGTLLDDGYTLGDYNLLIDPKKMLVLRMQ
notes: also called CM210
For B2, the binding result in test [2] is reported as “binds”.
